Values quoted from earlier work, collected in paper PMC3749136.

Biological target: EGF-R pY1092 peptide pY1092 peptide (Homo sapiens) (UniProt P00533)
Details: cited from earlier work

SOCS4 SH2, sequence (Q8WXH5 283-384): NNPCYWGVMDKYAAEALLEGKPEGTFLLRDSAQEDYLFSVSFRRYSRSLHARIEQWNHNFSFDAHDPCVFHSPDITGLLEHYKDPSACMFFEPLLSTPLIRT

In the case of SOCS4 SH2 (from UniProt Q8WXH5), the Kd is given as 500 nM.
